Reference: US20220267415A1

Target: recombinant SARS-CoV-2 Receptor Binding Domain (RBD) with a his tag (ATUM, Cat. 65639.1.a) (SARS-CoV-2), P0DTC2
Experiment: ELISA on coated RBD-his
Settings: remark: other sources report otherwise

B1: anti-SARS-CoV2-09 IgG (antibody, V domains shown)
VH: QVQLHQWGAGLLKPSETLSRTCAVYGGSFSGYYWTWIRQAPGKGLEWIGEINHGGSTRYNPSLESRVSISVDTSKKQFSLELRSVTAADTAIYYCARGYDTNWYGDGYNWFDPWDRGTLVTVSS
VL: QSALTQDPSVSVALGQTVRITCQGDSLRGSFASWYRQKPGQAPVLVIFGINNRPSGVPDRFSGSSSGNTASLTITGAQAEDEADYYCNSRESNSNRILFGGGTKVTVL
  EC50: 2.3 nM

B2: anti-SARS-CoV2-16 IgG (antibody, V domains shown)
VH: B1 VH
VL: QAVVTQPPSVSGTPGQRVTISCSGSSSSIGSNTVHWYQHLPGTAPKLLMYNNNERPSGVPARFSGSKSGTSASLVITGLQADDEAEYYCQSYDTGLSGHVFGSGTELTVL
  EC50: 4.2 nM
